Laboratory results: article PMC2570560, “Subunit Mobility and the Chaperone Activity of Recombinant αB-Crystallin” (The Open Biochemistry Journal, 2008)

Molecular target: the molecule itself
Assay: cross-linking; 0.05 mM αB-crystallin with 0.3 mM glutaraldehyde in PBS (20 mM phosphate buffer, 150 mM NaCl, pH 7.2), 20 °C, 30 h; dialysed against PBS; examined by SDS-PAGE

B1: recombinant human αB-crystallin (natural protein, UniProt P02511 1-175, looked up)
chain: MDIAIHHPWIRRPFFPFHSPSRLFDQFFGEHLLESDLFPTSTSLSPFYLRPPSFLRAPSWFDTGLSEMRLEKDRFSVNLDVKHFSPEELKVKVLGDVIEVHGKHEERQDEHGFISREFHRKYRIPADVDPLTITSSLSSDGVLTVNGPRKQVSGPERTIPITREEKPAVTAAPKK
notes: also called native αB-crystallin; source: E. coli BL21(DE3), purified (ammonium sulfate fractionation, Q-Sepharose anion exchange)
binding result: binds
